# Laboratory results: paper PMC6269424
# How the values were obtained:
# [1] = phospho-PPARγ western blot of adipose tissue; settings: glycan lost; control: HFD-fed Con (OGTflox) mice
# [2] = western blot of adipose tissue; settings: glycan lost; control: HFD-fed Con (OGTflox) mice
protein,measurement,setting,value
PPARγ2: adipocyte-specific OGT knockout (FKO) (protein) parent chain: MGETLGDSPVDPEHGAFADALPMSTSQEITMVDTEMPFWPTNFGISSVDLSVMEDHSHSFDIKPFTTVDFSSISAPHYEDIPFTRADPMVADYKYDLKLQEYQSAIKVEPASPPYYSEKTQLYNRPHEEPSNSLMAIECRVCGDKASGFHYGVHACEGCKGFFRRTIRLKLIYDRCDLNCRIHKKSRNKCQYCRFQKCLAVGMSHNAIRFGRMPQAEKEKLLAEISSDIDQLNPESADLRALAKHLYDSYIKSFPLTKAKARAILTGKTTDKSPFVIYDMNSLMMGEDKIKFKHITPLQEQSKEVAIRIFQGCQFRSVEAVQEITEYAKNIPGFINLDLNDQVTLLKYGVHEIIYTMLASLMNKDGVLISEGQGFMTREFLKNLRKPFGDFMEPKFEFAVKFNALELDDSDLAIFIAVIILSGDRPGLLNVKPIEDIQDNLLQALELQLKLNHPESSQLFAKVLQKMTDLRQIVTEHVQLLHVIKKTETDMSLHPLLQEIYKDLY,other: Ser112 phosphorylation,[1],increases
same,expression_or_secretion,[2],decreases
